Measurements taken from the supplement of paper PMC11316812.
± gives the standard deviation of the averaged measurements.

Columns and labels:
hTERT-HMEC = test: percentage of EdU-negative (G0-arrested) nuclei per well, 72 h; higher = more G0 arrest; details: reference: sequence is the full UniProt precursor, the tested protein was the secreted form or ectodomain
MCF7 = test: as above; details: reference: sequence is the full UniProt precursor, the tested protein was the secreted form or ectodomain
[1] = protein concentration 0.03125 µM
[2] = protein concentration 0.3125 µM
[3] = protein concentration 0.0225 µM
[4] = protein concentration 0.0165 µM
[5] = protein concentration 0.022665 µM
[6] = protein concentration 0.22665 µM
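Note: secreted proteins added to cultured cells, EdU pulse at the end, nuclei found by Hoechst imaging, EdU status from nuclear versus surrounding ring intensity ratio, PBS as neutral control.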

Row | Sequence | percentage of EdU-negative (hTERT-HMEC; [1]) | percentage of EdU-negative (hTERT-HMEC; [2]) | percentage of EdU-negative (MCF7; [1]) | percentage of EdU-negative (MCF7; [2]) | percentage of EdU-negative (hTERT-HMEC; [3]) | percentage of EdU-negative (hTERT-HMEC; protein concentration 0.225 µM) | percentage of EdU-negative (MCF7; [3]) | percentage of EdU-negative (MCF7; protein concentration 0.225 µM) | also measured
1 | MAAPALSWRLPLLILLLPLATSWASAAVNGTSQFTCFYNSRANISCVWSQDGALQDTSCQVHAWPDRRRWNQTCELLPVSQASWACNLILGAPDSQKLTTVDIVTLRVLCREGVRWRVMAIQDFKPFENLRLMAPISLQVVHVETHRCNISWEISQASHYFERHLEFEARTLSPGHTWEEAPLLTLKQKQEWICLETLTPDTQYEFQVRVKPLQGEFTTWSPWSQPLAFRTKPAALGKDTIPWLGHLLVGLSGAFGFIILVYLLINCRNTGPWLKKVLKCNTPDPSKFFSQLSSEHGGDVQKWLSSPFPSSSFSPGGLAPEISPLEVLERDKVTQLLLQQDKVPEPASLSSNHSLTSCFTNQGYFFFHLPDALEIEACQVYFTYDPYSEEDPDEGVAGAPTGSSPQPLQPLSGEDDAYCTFPSRDDLLLFSPSLLGGPSPPSTAPGGSGAGEERMPPSLQERVPRDWDPQPLGPPTPGVPDLVDFQPPPELVLREAGEEVPDAGPREGVSFPWSRPPGQGEFRALNARLPLNTDAYLSLQELQGQDPTHLV | 4.64 ± 0.89% | 4.91 ± 0.7% | 25.8 ± 3.7% | 26.1 ± 1.1% | – | – | – | – | –
2 | MWLLPALLLLCLSGCLSLKGPGSVTGTAGDSLTVWCQYESMYKGYNKYWCRGQYDTSCESIVETKGEEKVERNGRVSIRDHPEALAFTVTMQNLNEDDAGSYWCKIQTVWVLDSWSRDPSDLVRVYVSPAITTPRRTTHPATPPIFLVVNPGRNLSTGEVLTQNSGFRLSSPHFLLVVLLKLPLLLSMLGAVFWVNRPQWAPPGR [Q496F6] | – | – | – | – | 5.54 ± 0.7% | 5.97 ± 1.6% | 23.3 ± 1.9% | 26.6 ± 0.81% | –
3 | MCVGARRLGRGPCAALLLLGLGLSTVTGLHCVGDTYPSNDRCCHECRPGNGMVSRCSRSQNTVCRPCGPGFYNDVVSSKPCKPCTWCNLRSGSERKQLCTATQDTVCRCRAGTQPLDSYKPGVDCAPCPPGHFSPGDNQACKPWTNCTLAGKHTLQPASNSSDAICEDRDPPATQPQETQGPPARPITVQPTEAWPRTSQGPSTRPVEVPGGRAVAAILGLGLVLGLLGPLAILLALYLLRRDQRLPPDAHKPPGGGSFRTPIQEEQADAHSTLAKI | – | – | – | – | 5.89 ± 1% | 6.68 ± 0.33% | 24.5 ± 3.6% | 26 ± 1.2% | –
4 | MKTLLLLAVIMIFGLLQAHGNLVNFHRMIKLTTGKEAALSYGFYGCHCGVGGRGSPKDATDRCCVTHDCCYKRLEKRGCGTKFLSYKFSNSGSRITCAKQDSCRSQLCECDKAAATCFARNKTTYNKKYQYYSNKHCRGSTPRC | – | – | – | – | – | – | – | – | percentage of EdU-negative (hTERT-HMEC; [4]): 4.75 ± 0.11%; percentage of EdU-negative (hTERT-HMEC; protein concentration 0.165 µM): 6.7 ± 0.9%; percentage of EdU-negative (MCF7; [4]): 25.3 ± 2.7%; percentage of EdU-negative (MCF7; protein concentration 0.165 µM): 29.2 ± 0.99%
5 | MTLLLLPLLLASLLASCSCNKANKHKPWIEAEYQGIVMENDNTVLLNPPLFALDKDAPLRYAGEICGFRLHGSGVPFEAVILDKATGEGLIRAKEPVDCEAQKEHTFTIQAYDCGEGPDGANTKKSHKATVHVRVNDVNEFAPVFVERLYRAAVTEGKLYDRILRVEAIDGDCSPQYSQICYYEILTPNTPFLIDNDGNIENTEKLQYSGERLYKFTVTAYDCGKKRAADDAEVEIQVKPTCKPSWQGWNKRIEYAPGAGSLALFPGIRLETCDEPLWNIQATIELQTSHVAKGCDRDNYSERALRKLCGAATGEVDLLPMPGPNANWTAGLSVHYSQDSSLIYWFNGTQAVQVPLGGPSGLGSGPQDSLSDHFTLSFWMKHGVTPNKGKKEEETIVCNTVQNEDGFSHYSLTVHGCRIAFLYWPLLESARPVKFLWKLEQVCDDEWHHYALNLEFPTVTLYTDGISFDPALIHDNGLIHPPRREPALMIGACWTEEKNKEKEKGDNSTDTTQGDPLSIHHYFHGYLAGFSVRSGRLESREVIECLYACREGLDYRDFESLGKGMKVHVNPSQSLLTLEGDDVETFNHALQHVAYMNTLRFATPGVRPLRLTTAVKCFSEESCVSIPEVEGYVVVLQPDAPQILLSGTAHFARPAVDFEGTNGVPLFPDLQITCSISHQVEAKKDESWQGTVTDTRMSDEIVHNLDGCEISLVGDDLDPERESLLLDTTSLQQRGLELTNTSAYLTIAGVESITVYEEILRQARYRLRHGAALYTRKFRLSCSEMNGRYSSNEFIVEVNVLHSMNRVAHPSHVLSSQQFLHRGHQPPPEMAGHSLASSHRNSMIPSAATLIIVVCVGFLVLMVVLGLVRIHSLHRRVSGAGGPPGASSDPKDPDLFWDDSALTIIVNPMESYQNRQSCVTGAVGGQQEDEDSSDSEVADSPSSDERRIIETPPHRY [Q9BQT9] | – | – | – | – | 4.44 ± 0.21% | 5.534 ± 0.019% | 25.2 ± 1.4% | 26.1 ± 0.34% | –
6 | MRSAAVLALLLCAGQVTALPVNSPMNKGDTEVMKCIVEVISDTLSKPSPMPVSQECFETLRGDERILSILRHQNLLKELQDLALQGAKERAHQQKKHSGFEDELSEVLENQSSQAELKEAVEEPSSKDVMEKREDSKEAEKSGEATDGARPQALPEPMQESKAEGNNQAPGEEEEEEEEATNTHPPASLPSQKYPGPQAEGDSEGLSQGLVDREKGLSAEPGWQAKREEEEEEEEEAEAGEEAVPEEEGPTVVLNPHPSLGYKEIRKGESRSEALAVDGAGKPGAEEAQDPEGKGEQEHSQQKEEEEEMAVVPQGLFRGGKSGELEQEEERLSKEWEDSKRWSKMDQLAKELTAEKRLEGQEEEEDNRDSSMKLSFRARAYGFRGPGPQLRRGWRPSSREDSLEAGLPLQVRGYPEEKKEEEGSANRRPEDQELESLSAIEAELEKVAHQLQALRRG | 5.57 ± 0.62% | 5.39 ± 0.89% | 26.2 ± 1.6% | 25.6 ± 1.5% | – | – | – | – | percentage of EdU-negative (hTERT-HMEC; [5]): 4.31 ± 0.57%; percentage of EdU-negative (hTERT-HMEC; [6]): 7.26 ± 0.12%; percentage of EdU-negative (MCF7; [5]): 24.2 ± 2.3%; percentage of EdU-negative (MCF7; [6]): 24.9 ± 1.5%
